Legend:
Type in all cases: cell-based, human
active caspases = test: Pan-caspase detection (FAM-VAD-FMK, confocal)
Experimental: Detection of caspase activity in the prostate cancer cell lines was performed using APO LOGIX™ Carboxyfluorescin Caspase detection kit (Cell Technology, Mountain View, Calif.). Active caspases were detected through the use of a FAM-VAD-FMK inhibitor that irreversibly binds to active caspases. […] Next, 10 μl of a 30× working dilution of carboxyfluorescein labeled peptide fluoromethyl ketone (FAM-VAD-FMK) was added to 300 μl of media and added to each 35 mm dish. Cells were then incubated for 1 hour at 37° C. under 5% CO2. Then, the medium was aspirated and the cells were washed twice with 2 ml of a 1× Working dilution Wash Buffer. Cells were viewed under differential interference contrast (DIC) or under laser excitation at 488 nm. The fluorescent signal was analyzed using a confocal microscope (Zeiss LSM 5 Pascal) and a 63×DIC oil lens with a Vario 2 RGB Laser Scanning Module.

PC3/AR+ cells = test: MTT cell viability assay; conditions: PC3/AR+ versus PC3
Experimental: (§1) To examine the effects of hBD-1 on cell growth, metabolic 3-[4,5-dimethylthiazol-2yl]-2,5-diphenyl tetrazolium bromide (MTT) assay was performed. DU145, LNCaP, PC3 and PC3/AR+ cells co-transfected with pvgRXR plasmid and pIND/hBD-1 construct or control pvgRXR plasmid were seeded onto a 96-well plate at 1-5×10^3 cells per well. Twenty-four hours after seeding, fresh growth medium was added containing 10 μM Pon A daily to induce hBD-1 expression for 24, 48 and 72 h after which the MTT assay was performed according to the manufacturer's instructions (Promega). Reactions were performed three times in triplicate.

DU145 cells [1] = test: Annexin V-FITC/PI flow cytometry
Experimental: (§2) The remaining attached cells were harvested by trypsinization and combined with the detached cells and PBS. The cells were then pelleted at 4° C. (500×g) for 5 min, washed twice in PBS, and resuspended in 100 ul of 1× Annexin binding buffer (0.1 M Hepes/NaOH at pH 7.4, 1.4 M NaCl, 25 mM CaCl2) containing 5 μl of Annexin V-FITC and 5 μl of PI. The cells were incubated at room temperature (RT) for 15 min. in the dark, then diluted with 400 μl of 1× Annexin binding buffer and analyzed by FACscan (Becton Dickinson, San Jose, Calif.). All reactions were performed three times.
(§3) PC3 and DU145 cells transfected with the hBD-1 expression system were grown in 60-mm dishes and induced for 12, 24, and 48 h with 10 μM Pon A. The cells were harvested and analyzed by flow cytometry as described in Example 1.

PC3 cells [2] = test: Annexin V-FITC/PI flow cytometry
Experimental: as §2, §3

DU145 cells [3] = test: Phase contrast microscopy of cell growth; conditions: DU145, 48 h DEFB1 induction
Experimental: (§4) Cell morphology was analyzed by phase contrast microscopy. […] The following day plasmid-containing cells were induced for a period of 48 h with media containing 10 μM Ponasterone A, while control cells received fresh media. The cells were then viewed under an inverted Zeiss IM 35 microscope (Carl Zeiss, Germany). Phase contrast pictures of a field of cells were obtained using the SPOT Insight Mosaic 4.2 camera (Diagnostic Instruments, USA). Cells were examined by phase contrast microscopy under 32× magnification and digital images were stored as uncompressed TIFF files and exported into Photoshop CS software (Adobe Systems, San Jose, Calif.) for image processing and hard copy presentation.
(§5) The effect of PAX2 knock-down on cell growth was analyzed by phase contrast microscopy as described in Example 1.

LNCaP cells [4] = test: Phase contrast microscopy of cell growth; conditions: 48 h DEFB1 induction
Experimental: as §4, §5

PC3 cells [5] = test: Phase contrast microscopy of cell growth; conditions: PC3, 48 h DEFB1 induction
Experimental: as §4, §5

DU145 cells [6] = test: AO/EtBr membrane integrity staining
Experimental: (§6) Acridine orange (AO)/ethidium bromide (EtBr) dual staining was performed to identify changes in cell membrane integrity, as well as apoptotic cells by staining the condensed chromatin. AO stains viable cells as well as early apoptotic cells, whereas EtBr stains late stage apoptotic cells that have lost […]. Briefly, cells were seeded into 2 chamber culture slides (BD Falcon, USA). […] In order to determine the effect of PAX2 inhibition on membrane integrity, separate culture slides containing DU145, PC3 and LNCaP were treated with PAX2 siRNA and incubated for 4 days. Following this, cells were washed once with PBS and stained with 2 ml of a mixture (1:1) of AO (Sigma, USA) and EtBr (Promega, USA) (5 ug/ml) solution for 5 min. Following staining, the cells were again washed with PBS. Fluorescence was viewed by a Zeiss LSM 5 Pascal Vario 2 Laser Scanning Confocal Microscope (Carl Zeiss Jena, Germany). The excitation color wheel contain BS505-530 (green) and LP560 (red) filter blocks which allowed for the separation of emitted green light from AO into the green channel and red light from EtBr into the red channel. […] The excitation was provided by a Kr/Ar mixed gas laser at wavelengths of […]. Slides were analyzed under 40× magnification and digital images were stored as uncompressed TIFF files and exported into Photoshop CS software (Adobe Systems, San Jose, Calif.) for image processing and hard copy presentation.
(§7) Acridine orange (AO)/ethidium bromide (EtBr) dual staining was performed to identify changes in cell membrane integrity, as well as apoptotic cells by staining the condensed chromatin. AO stains viable cells and early apoptotic cells, whereas EtBr stains late stage apoptotic cells that have compromised membranes. Briefly, PC3, DU145 and LNCaP cells were seeded into 2-chamber culture slides (BD Falcon). Cells transfected with empty plasmid or hBD-1 plasmid were induced for 24 or 48 h with media containing 10 μM Pon A, while control cells received fresh growth media at each time point. After induction, cells were washed once with PBS and stained with 2 ml of a mixture (1:1) of AO (Sigma, St. Louis, Mo.) and EtBr (Promega) (5 μg/ml) solution for 5 min and were again washed with PBS.
(§8) Fluorescence was viewed by a Zeiss LSM 5 Pascal Vario 2 Laser Scanning Confocal Microscope (Carl Zeiss). The excitation color wheel contains BS505-530 (green) and LP560 (red) filter blocks which allowed for the separation of emitted green light from AO into the green channel and red light from EtBr into the red channel. The laser power output and gain control settings within each individual experiment were identical between control and hBD-1 induced cells. The excitation was provided by a Kr/Ar mixed gas laser at wavelengths of […]. Slides were analyzed under 40× magnification and digital images were stored as uncompressed TIFF files and exported into Photoshop CS software (Adobe Systems) for image processing and hard copy presentation.

LNCaP cells [7] = test: AO/EtBr membrane integrity staining; conditions: 48 h hBD-1 induction
Experimental: as §6, §7, §8

PC3 cells [8] = test: AO/EtBr membrane integrity staining
Experimental: as §6, §7, §8

LNCaP cells [9] = test: MTT cell viability assay; conditions: DEFB1 induction 24-72 h
Experimental: Reactions were performed three times in triplicate.
DU145, PC3 and LNCaP cells (1×10^5) were transfected with 0.5 μg of the PAX2 siRNA pool or control siRNA pool using Codebreaker transfection reagent according to the manufacturer's protocol (Promega). Next, cell suspensions were diluted and seeded onto a 96-well plate at 1-5×10^3 cells per well and allowed to grow for 2-, 4- or 6 days. After culture, cell viability was determined by measuring the conversion of 3-[4,5-dimethylthiazol-2yl]-2,5 diphenyl tetrazolium bromide, MTT (Promega), to a colored formazan product. Absorbance was read at 540 nm on a scanning multiwell spectrophotometer.
as §1

B1: DEFB1: human β-defensin-1 (SEQ ID NO:63), expressed in cells from pIND/DEFB1 on Ponasterone A induction (protein, listed as Homo sapiens)
chain: MRTSYLLLFTLCLLLSEMASGGNFLTGLGHRSDHYNCVSSGGQCLYSACPIFTKIQGTCYRGKAKCCK
caspase activity (green staining) (active caspases; DU145, 24 h DEFB1 induction): green staining | caspase activity (green staining) (active caspases; LNCaP, 24 h DEFB1 induction): no green staining | caspase activity (green staining) (active caspases; PC3, 24 h DEFB1 induction): green staining | hBD-1 cytotoxicity with ectopic AR expression (PC3/AR+ cells): no difference between PC3/AR+ and PC3 cells | number of apoptotic cells (DU145 cells [1]; DU145, 12 h DEFB1 induction): 12% | number of apoptotic cells (DU145 cells [1]; DU145, 24 h DEFB1 induction): 34% | number of apoptotic cells (DU145 cells [1]; DU145, 48 h DEFB1 induction): 59% | number of apoptotic cells (PC3 cells [2]; PC3, 12 h DEFB1 induction): 10% | number of apoptotic cells (PC3 cells [2]; PC3, 24 h DEFB1 induction): 20% | cell number (DU145 cells [3]): significant reduction in cell number | cell proliferation (LNCaP cells [4]): no effect on cell proliferation | cell number (PC3 cells [5]): significant reduction in cell number | membrane integrity (AO/EtBr) (DU145 cells [6]; DU145, 24 h DEFB1 induction): accumulation of EtBr in the cytoplasm | membrane integrity (AO/EtBr) (DU145 cells [6]; DU145, 48 h DEFB1 induction): condensed nuclei and appeared yellow | membrane integrity (AO/EtBr) (LNCaP cells [7]): no observable alterations to membrane integrity | membrane integrity (AO/EtBr) (PC3 cells [8]; PC3, 24 h DEFB1 induction): accumulation of EtBr in the cytoplasm | membrane integrity (AO/EtBr) (PC3 cells [8]; PC3, 48 h DEFB1 induction): condensed nuclei and appeared yellow | effect on cell viability (LNCaP cells [9]): no significant effect
